Reference: patent publication US20180265843A1, “METHOD AND MEDIUM FOR NEURAL DIFFERENTIATION OF PLURIPOTENT CELLS” (INSERM 9INSTITUT NATIONAL DE LA SANTÉ ET DE LA RECHERCHE …, priority 2009, published 2018)

B1: Noggin: natural inhibitor of the BMP pathway; recombinant noggin from R&D Systems or Preprotech (protein, UniProt Q13253 28-232, looked up)
Noggin: QHYLHIRPAPSDNLPLVDLIEHPDPIFDPKEKDLNETLLRSLLGGHYDPGFMATSPPEDRPGGGGGAAGGAEDLAELDQLLRQRPSGAMPSEIKGLEFSEGLAQGKKQRLSKKLRRKLQMWLWSQTFCPVLYAWNDLGSRFWPRYVKVGSCFSKRSCSVPEGMVCKPSKSVHLTVLRWRCQRRGGQRCGWIPIQYPIISECKCSC

Assays:
hES cells [1] = test: Real-time qPCR of lineage marker transcripts after differentiation; type: cell-based, human; settings: for expression of early neural markers PAX6 and SOX1: 8 days treatment in N2B27, qPCR; for neural crest cells (PAX3+/SOX10+) and keratinocytes (Cytokeratins 8 and 18), alternative fates from primitive ectoderm: 8 days treatment, qPCR and ICC
Protocol: (§1) Human ES cell cultures or IFS cultures reaching 70-80% confluence were used to perform neural induction using NFS medium. Colonies were cut in pieces and manually detached in N2B27 or NFS medium completed with the Rock-inhibitor Y27632 (10 μM, Calbiochem). Clusters were transferred for 6 h in a low attachment Petri dish in order to completely starve them from the influence of the feeders. Finally, the hES or IFS suspension was plated in the same medium at a 1:1 ratio in culture dishes pre-coated with poly-ornithin and laminin (2 μg/ml, Sigma). The day after and then every other day, the medium was changed for NFS medium without Y27632.
Total RNA was isolated using the RNeasy Mini Kit (Qiagen) according to the manufacturer's instructions. A total of 500 ng of RNA were reverse transcribed into cDNA with SuperScript III (Invitrogen) using random primers. Real-time Q-PCR was performed with SYBR Green as a probe on a LC480 Real-Time system (Roche). Quantification was performed at a threshold detection line (Ct value). The Ct of each target gene was normalized against that of the cyclophilin as a housekeeping gene. The 2-ΔΔCt method was used to determine the relative level of expression of each gene. Data were expressed as mean±SEM. Primer sequences are listed in follow.

hES cells [2] = test: FACS analysis of culture composition after differentiation with Noggin, SB431542 or both (NFS); type: cell-based, human; settings: for differentiation of hES cells into an alternative fate than the neural lineage: 8 days treatment in N2B27; for proportion of neural cells, in words: 8 days treatment in N2B27, FACS
Description: A—FACS analyses of the composition of the whole culture after 8 days of differentiation in N2B27 alone or completed with Noggin, SB431542 or both (NFS). B—QPCR quantification of transcript specific of ES cells (Oct4 and Nanog) and early neural precursors (PAX6 and SOX1) for each condition of differentiation.
as §1
Cells were collected using trypsin and fixed with 2% PFA for 15 min at 4° C. Permeabilization was performed using a PBS/0.1% saponin solution 10 min at RT. The same solution was then used to dilute primary antibodies as followed: mouse monoclonal OCT4 antibody linked to phycoerythrin (oct4-PE, 1:10°, BD Biosciences) and polyclonal rabbit anti-SOX2 antibody (1:500°, Chemicon). Cells were exposed to the mixture of primary antibodies 45 min at RT. An additional incubation with anti-rabbit secondary antibodies linked to AlexaFluo 488 was performed during 30 min at RT in order to detect SOX2 unconjugated antibodies. FACS analysis was performed using a Becton Dickinson FACScalibur™ flow cytometer.
We first monitored the efficiency of neural differentiation obtained only by removing from the culture medium any known instructive signals for alternative cell fates. We used N2B27 medium, a defined medium previously developed to induce neural differentiation of both mouse and human embryonic stem cells in an adherent monolayer culture system (Ying et al., 2003; Lowell et al., 2006). In order to analyzed consistently differentiation of several naïve hES cell lines, we have develop a protocol of systematic counting where cells were stained using antibodies against OCT4 and SOX2 transcription factors and then, analysed using FACS technology. Cells expressing both OCT4 and SOX2 were considered as embryonic stem cells whereas cells expressing only SOX2 were counted as neural cells. Cells totally negative or expressing only OCT4 were designated as differentiated into other type of tissues or layers. FACS analysis was performed on 4 hES cell lines (Hues 24, H9, VUB01, SA01), 8 days after platting on laminin in N2B27. Neural differentiation was obtained with all cell lines, but the efficiency of differentiation appeared highly variable depending of the cell line used, ranging from 33.84% for SA01 line to 82.33% for VUB01 line (FIG. 1-A).

[3] = 8 days of differentiation, qPCR

| Molecule | markers of primitive endoderm (SOX17, FOXA1) and primitive mesoderm (Brachyury, FLK1) (hES cells [1]; [3]) | expression of early neural markers PAX6 and SOX1 (hES cells [1]) | neural crest cells (PAX3+/SOX10+) and keratinocytes (Cytokeratins 8 and 18), alternative fates from primitive ectoderm (hES cells [1]) | differentiation of hES cells into an alternative fate than the neural lineage (hES cells [2]) | proportion of neural cells, in words (hES cells [2]) | transcripts of extra-embryonic tissue markers CDX2 and Eomes (hES cells [1]; [3]) | ES cells expressing Oct4 and NANOG remaining in the culture (hES cells [2]; after 8 days of treatment) |
| --- | --- | --- | --- | --- | --- | --- | --- |
| NC(=O)c1ccc(-c2nc(-c3ccc4c(c3)OCO4)c(-c3ccccn3)[nH]2)cc1 [SB431542, 4-(5-Benzol[1,3]dioxol-5-yl-4-pyrlidn-2-yl-1H-imidazol-2-yl)-benzamide hydrate, reference compound] | not detected | didn't increase robustly | detected | drastic differentiation of ES into an alternative fate | didn't increase robustly | – | – |
| B1 | not detected | slight increased | not detected | complete blockage | slight increased | not detected | a large number of ES cells |
